Paper PMC12120020

Target: XRCC4 (X-ray repair cross-complementing protein 4) (UniProt Q13426)
Assay: co-IP with anti-Flag M2 beads
Conditions: reference: Flag-AATF wild type, IR; sites S189

binding against the reference: stronger
Substance: AATF (apoptosis antagonizing transcription factor) (from UniProt Q9NY61) Flag-AATF S189A, IR
